Test results: paper PMC6784111

Tests used:
Assay in all cases: SPR; 40 RU of each antibody immobilized on a CM5 chip; oxMIF (MIF treated with 0.2% Proclin300) injected at 3–25 nM in HBS-EP (HEPES 10 mM, NaCl 150 mM, EDTA 3 mM, 0.005% Tween-20); BIAcore T200; 25 °C; 1:1 Langmuir model
[1] = target: BaxM159 variant 1-DIQMAQ (parental anti-oxMIF antibody without the heavy chain C-terminal lysine)
[2] = target: BaxM159 variant 2-DIQMAQ-K (parental anti-oxMIF antibody with the heavy chain C-terminal lysine)
BaxM159 variant 3-EIVLAQ = target: BaxM159 variant 3-EIVLAQ
BaxM159 variant 4-DIQMGQ = target: BaxM159 variant 4-DIQMGQ
BaxM159 variant 5-DIQMAE = target: BaxM159 variant 5-DIQMAE
BaxM159 variant 6-EIVLGQ = target: BaxM159 variant 6-EIVLGQ
BaxM159 variant 7-EIVLAE = target: BaxM159 variant 7-EIVLAE
BaxM159 variant 8-DIQMGE = target: BaxM159 variant 8-DIQMGE
BaxM159 variant 9-EIVLGE = target: BaxM159 variant 9-EIVLGE

B1: oxidized macrophage migration inhibitory factor (oxMIF) (natural protein)
chain: MPMFIVNTNVPRASVPDGFLSELTQQLAQATGKPPQYIAVHVVPDQLMAFGGSSEPCALCSLHSIGKIGGAQNRSYSKLLCGLLAERLRISPDRVYINYYDMNAANVGWNNSTFA
modifications: converted to its oxidized form by treatment with 0.2% Proclin300
[1]
  Kd: 2.6 nM
  koff: 0.00029 s⁻¹
  kon: 110000 M⁻¹ s⁻¹
[2]
  Kd: 3 nM
  koff: 0.00038 s⁻¹
  kon: 130000 M⁻¹ s⁻¹
BaxM159 variant 3-EIVLAQ
  Kd: 1.5 nM
  koff: 0.00031 s⁻¹
  kon: 200000 M⁻¹ s⁻¹
BaxM159 variant 4-DIQMGQ
  Kd: 4.3 nM
  koff: 0.00056 s⁻¹
  kon: 160000 M⁻¹ s⁻¹
BaxM159 variant 5-DIQMAE
  Kd: 2.5 nM
  koff: 0.0004 s⁻¹
  kon: 160000 M⁻¹ s⁻¹
BaxM159 variant 6-EIVLGQ
  Kd: 2.7 nM
  koff: 0.00064 s⁻¹
  kon: 260000 M⁻¹ s⁻¹
BaxM159 variant 7-EIVLAE
  Kd: 2.4 nM
  koff: 0.00044 s⁻¹
  kon: 180000 M⁻¹ s⁻¹
BaxM159 variant 8-DIQMGE
  Kd: 4.2 nM
  koff: 0.00054 s⁻¹
  kon: 130000 M⁻¹ s⁻¹
BaxM159 variant 9-EIVLGE
  Kd: 1.4 nM
  koff: 0.00044 s⁻¹
  kon: 310000 M⁻¹ s⁻¹
